In patent publication US9579382B2:

Target: human CD20 (human) (UniProt P11836)

**Q.** With rituximab (antibody) as the substance, how does the % of cytotoxicity (dead CFSE+ 7-AAD+ Raji target cells), ADCC with PBMC effector cells at 25:1 for 6 hours read?
**A.** Its % of cytotoxicity (dead CFSE+ 7-AAD+ Raji target cells), ADCC with PBMC effector cells at 25:1 for 6 hours is 25%.
